B1: HuMab 084 (antibody, V domains shown)
VH: QVQLVQSGAEVKKPGSSVKVSCKASGGTFRTYAINWVRQAPGQGLEWMGRINTVLGIVNHAQKFQGRVTITADKSTNTAYMELNSLRSEDTAVYYCAREKGVDYYYGIEVWGQGTTVTVSS
VL: DIQMTQSPSSVSASVGDRVTITCRASQGISSWLAWYQHKPGKAPKLLIYVASTLQSGVPSRFSGSGSGTDFTLTISSLQPEDFATYYCQQANSFPLTFGGGTKVEIK
B2: HuMab 127 (antibody, V domains shown)
VH: EVQLVQSGAEVKKPGESLTISCKGSGYSFSIYWIGWVRQMPGKGLEWMGIIFPGDSDIRYSPSFQGQVTISADKSISTAYLQWSSLKASDTAMYYCARQPGDWSPRHWYFDLWGRGTLVTVSS
VL: VIWMTQSPSLLSASTGDRVTISCRMSQGISSYLAWYQQKPGKAPELLIYAASTLQSGVPSRFSGSGSGTDFTLTISYLQSEDFATYYCQQYYSFPLTFGGGTKVEIK
B3: HuMab 129 (antibody, V domains shown)
VH: QVQLVESGGGVVQPGRSLRLSCAASGFTFSTFAIHWVRQAPGKGLEWVAVISYDGGHKFYADSVKGRFTISRDNSKNTLYLQMNSLRAEDTAMYYCARGLGVWGAFDYWGQGTLVTVSS
VL: EIVLTQSPATLSLSPGERATLSCRASQSVSSYLAWYQQKPGQAPRLLIYDASNRATGIPARFSGSGSGTDFTLTISSLEPEDFAVYYCQQRSNWWTFGQGTKVEIK
B4: HuMab 132 (antibody, V domains shown)
VH: QVQLVQSGAEVKKPGASVKVSCKASGYTFTSYGISWVRQAPGQGLEWMGWISAYNGNSNYVQKFQGRVTMTTDTTTSTAYMELRSLTSDDTAVYYCAREYSYDSGTYFYYGMDVWGQGTTVTVSS
VL: EIVLTQSPATLSLSPGERATLSCRASQSVSSYLAWYQQKPGQAPRLLIYDASNRATGIPARFSGSGSGTDFTLTISSLEPEDFAVYYCQQRSNWPMYTFGQGTKLEIK
B5: HuMab 169 (antibody, V domains shown)
VH: QVQLVQSGAEVKKPGASVKVSCKASGYTFTNYGISWVRQAPGQGLEWMGWLSAYSGNTIYAQKLQGRVTMTTDTSTTTAYMELRSLRSDDTAVYYCARDRIVVRPDYFDYWGQGTLVTVSS
VL: EIVLTQSPATLSLSPGERATLSCRASQSVSSYLAWYQQKPGQAPRLLIYDASNRATGIPARFSGSGSGTDFTLTISSLEPEDFAVYYCQQRSNWPRTFGQGTKVEIK
B6: HuMab 098 (antibody, V domains shown)
VH: EVQLLESGGGLVQPGGSLRLSCAASGFTFSNYGMSWVRQAPGKGLEWVSAISGSAYSTYYADSVKGRFTISRDNSKNTLWLQMNSLRAEDTAVYYCAKAHYHGSGSYYTLFDYWGQGTLVTVSS
VL: DIQMTQSPSSLSASVGDRVTITCRASQGISSWLAWYQQKPEKAPKSLIYAASSLQSGVPSRFSGSGSGTDFTLTISSLQPEDFATYYCQQYNSYPYTFGQGTKLEIK
B7: HuMab 025 (antibody, V domains shown)
VH: QVQLQQWGAGLLKPSETLSLTCAVYGGSFSDYYWNWIRQPPGKGLEWIGEIHHSGSTNYNPSLKSRVTISVDTSKNQFSLKLSSVTAADTAVYYCARGYYDSGVYYFDYWAQGTLVTVSS
VL: B6 VL with S31R, Q55R, Y96I, K103R
B8: HuMab 153 (antibody, V domains shown)
VH: QVQLVESGGGVVQPGRSLRLSCAASGFTFSDYVIHWVRQAPGKGLEWVTVISYDGSNKYYADSVKGRFTISRDNSKNTLYLQMNSLSAEDTAMYYCARGGITGTTGVFDYWGQGTLVTVSS
VL: B6 VL with A50D, S67Y, T72S, T85I, N92K, Y96I, K103R
B9: HuMab 050 (antibody, V domains shown)
VH: EVQLLESGGGLVQPGGSLRLSCAASGFTFSSYAMNWVRQAPGKGLEWVSAISGRGGTTYYADSVKGRFTISRDNSKNTLYLQMSSLRAEDTAVYYCAKARANWDYFDYWGQGTLVTVSS
VL: B1 VL with V50A, T53I, L96I, G100Q, K103R, V104L
B10: HuMab 159 (antibody, V domains shown)
VH: EVQLVQSGAEVKKPGESLKISCKGSGYNFTSYWIGWVRQMPGKGLEWMGIIYPGDSDTRYSPSFQGQVTISADKSISTAYLQWSSLKASDTAMYYCARWGTYYDILTGYFNWFDPWGQGTLVTVSS
VL: B6 VL with N92Y, S93I, Y96W, L104V

Where a chain is given by its changes, count along the chain named.

Drawing on patent US20170369590A1 (published 2017), this text covers EC50 for 10 molecules.

Usually EC50 stands for the concentration giving half of the maximal effect.

One test addresses T1, human epidermal growth factor receptor 2 (HER2), membrane-bound on cells (human, UniProt P04626 23-1255). Description: FACS binding; A431 cells.
B1 returned an EC50 of 0.498 µg/mL.
On the same count and under the same terms, in the case of B2 it was 0.27 µg/mL; in that of B3, 0.316 µg/mL; in that of B4, 0.068 µg/mL.
As to B5, the EC50 is 0.415 µg/mL.
Same read-out and setting: in the case of B6 it was 0.101 µg/mL; in that of B7, 0.128 µg/mL; in that of B8, 0.244 µg/mL.
Still for that read-out and setting: in the case of B9 it was 1.14 µg/mL; in that of B10, 0.855 µg/mL.

A further test concerns the target T1, human epidermal growth factor receptor …. The test can be described thus: FACS binding; AU565 cells. On the technique in general: In flow cytometry, cells or beads pass a laser one at a time.
B1 had a 50% effective concentration (EC50) of 0.491 µg/mL.
Still for that read-out and setting: as for B2, the figure is 2.29 µg/mL.
Same read-out and setting: in the case of B3 it was 0.578 µg/mL.
Molecule B4 displayed an EC50 of 0.911 µg/mL. This EC50 is about 1.6-fold higher than that of the molecule before.
Still for that read-out and setting: as for B5, the figure is 0.908 µg/mL; as for B6, 0.336 µg/mL; as for B7, 0.58 µg/mL.
On to B8, for which the EC50 stood at 0.626 µg/mL.
The molecule B9 registered an EC50 of 0.722 µg/mL.
Same read-out and setting: in the case of B10 it was 1.3 µg/mL.
